“And” between values parts separate entries of the source, which are not always exact repeats. Equal values may be shown once.
Biological target: ILz(6):TRAIL (human) (UniProt P50591)
Assay: SEC

Substance: ILz(6):TRAIL (from UniProt P50591 114-281) (ligand)
- stoichiometry N: 3 and 6
